Assay results as given in IntAct's records for PubMed 29072299.

B1: Mothers against decapentaplegic homolog 4 (Mus musculus), P97471 (parent)
chain: MDNMSITNTPTSNDACLSIVHSLMCHRQGGESETFAKRAIESLVKKLKEKKDELDSLITAITTNGAHPSKCVTIQRTLDGRLQVAGRKGFPHVIYARLWRWPDLHKNELKHVKYCQYAFDLKCDSVCVNPYHYERVVSPGIDLSGLTLQSNAPSMLVKDEYVHDFEGQPSLPTEGHSIQTIQHPPSNRASTETYSAPALLAPAESNATSTTNFPNIPVASTSQPASILAGSHSEGLLQIASGPQPGQQQNGFTAQPATYHHNSTTTWTGSRTAPYTPNLPHHQNGHLQHHPPMPPHPGHYWPVHNELAFQPPISNHPAPEYWCSIAYFEMDVQVGETFKVPSSCPVVTVDGYVDPSGGDRFCLGQLSNVHRTEAIERARLHIGKGVQLECKGEGDVWVRCLSDHAVFVQSYYLDREAGRAPGDAVHKIYPSAYIKVFDLRQCHRQMQQQAATAQAAAAAQAAAVAGNIPGPGSVGGIAPAISLSAAAGIGVDDLRRLCILRMSFVKGWGPDYPRQSIKETPCWIEIHLHRALQLLDEVLHTMPIADPQPLD
partner: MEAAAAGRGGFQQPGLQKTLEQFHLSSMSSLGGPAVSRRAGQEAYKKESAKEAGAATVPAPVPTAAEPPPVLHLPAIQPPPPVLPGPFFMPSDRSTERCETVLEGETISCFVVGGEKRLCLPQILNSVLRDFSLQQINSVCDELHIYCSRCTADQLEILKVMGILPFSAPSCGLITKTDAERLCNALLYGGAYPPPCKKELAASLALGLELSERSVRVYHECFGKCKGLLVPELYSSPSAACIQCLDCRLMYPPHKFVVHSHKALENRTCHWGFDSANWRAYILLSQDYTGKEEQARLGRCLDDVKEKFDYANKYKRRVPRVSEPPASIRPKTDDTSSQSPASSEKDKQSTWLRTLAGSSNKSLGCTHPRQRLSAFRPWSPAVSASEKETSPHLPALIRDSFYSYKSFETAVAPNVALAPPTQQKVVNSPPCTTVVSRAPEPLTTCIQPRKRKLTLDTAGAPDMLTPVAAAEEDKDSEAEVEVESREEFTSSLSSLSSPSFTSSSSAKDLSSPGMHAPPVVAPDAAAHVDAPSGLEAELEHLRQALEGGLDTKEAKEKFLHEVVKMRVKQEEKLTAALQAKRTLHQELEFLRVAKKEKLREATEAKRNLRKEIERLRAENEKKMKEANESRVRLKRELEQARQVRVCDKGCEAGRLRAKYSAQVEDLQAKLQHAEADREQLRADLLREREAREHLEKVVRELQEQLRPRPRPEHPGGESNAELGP

Variants of: B1
Details: with ski_mouse Ski

Variant | effect of a mutation on the interaction
Y429A | disrupting interaction strength
A432E | disrupting interaction strength
